Results reported in paper PMC4441793.

Key:
[1] = target: HIV-1 reverse transcriptase p51 subunit (residues 1-440) (human immunodeficiency virus type 1 (HIV-1)); test: SEC-MALS
[2] = target: HIV-1 reverse transcriptase p66 subunit (immature RT precursor) (human immunodeficiency virus type 1 (HIV-1)); test: SEC-MALS

Substance	percent dimer in the NMR sample [1] [%]	stoichiometry N [1]	stoichiometry N [2]
HIV-1 reverse transcriptase p51 subunit (residues 1-440) (domain or fragment)	< 60	2	–
HIV-1 reverse transcriptase p66 subunit (immature RT precursor) (enzyme)	–	–	2
